The results in this text go back to article PMC9071374, “Identification of a WRKY transcriptional activator from Camellia sinensis that regulates methylated EGCG biosynthesis”.

This series has as its target CsWRKY57like (WRKY domain) (Camellia sinensis, UniProt A0A4S4EXI7 145-222). Put plainly: EMSA; excess unlabeled probe abolishes binding; Biotin-labeled probes, 6% native PAGE; buffer, salt, pH and temperature not stated (cited refs 48, 49). To be noted: protein: recombinant; tags: GST (pGEX-4T); label: biotin. (In general: In EMSA bound probe runs differently from free probe, usually more slowly.)

CsWRKY57like (WRKY domain), sequence (A0A4S4EXI7 entry or part of it): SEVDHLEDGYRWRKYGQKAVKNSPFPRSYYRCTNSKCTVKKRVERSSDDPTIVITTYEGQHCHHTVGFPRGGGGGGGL

B1: CCoAOMT promoter W-box probe (dsDNA)
DNA 1: TTTACTTAAAATATGGATTTTGACTTGTGATATAAAAAATTATAAATATTTT
DNA 2: AAAATATTTATAATTTTTTATATCACAAGTCAAAATCCATATTTTAAGTAAA
Regarding B1, the binding result is recorded as “binds”.

B2: CsDFR promoter W-box probe (dsDNA)
DNA 1: GCCCAAGCTCATATAGTCAAAAAAGTCAAAAAGCCAAAAAGTCAACCCACTTCCC
DNA 2: GGGAAGTGGGTTGACTTTTTGGCTTTTTGACTTTTTTGACTATATGAGCTTGGGC
As for B2, the binding result is on record as “binds”.
